Patent US20200206312A1
Values joined by “and” are separate entries in the source; they are usually repeats but may differ in a detail not shown here. Equal values may be shown once. Read-outs that look alike come from different tables or passages of the source. Bridge positions count the residues as written; N and C are the ends. Ends that are not written are not given here. * marks the point of attachment. Biotin = O=C1N[C@H]2[C@H](CS[C@H]2CCCCC(=O)*)N1; Capped = not defined here

B1: NH2(Biotin)-Y-G-P-Q-C(Capped)-L-C(Capped)-R-COOH (peptide)
peptide: Biotin-YGPQC(Capped)LC(Capped)R-OH
modifications: reading uncertain; also: printed as NH2(Biotin)-Y-G-P-Q-C(Capped)-L-C(Capped)-R-COOH
B2: tri-peptide 1/2/3 from trypsin digestion of Lys-27 biotinylated TM601 (UM-1438-118) (peptide)
chain 1: MCMPCFTTDHQMAR
chain 2: GKCYGPQCLCR
chain 3: KCDDCCGGK
modifications: not fully specified; modifications not checked
B3: tri-peptide 1/2/3 from trypsin digestion of N-terminal biotinylated TM601 (UM-1438-127-1) (peptide)
chain 1: MCMPCFTTDHQMAR
chain 2: CYGPQCLCR
chain 3: KCDDCCGGK
modifications: not fully specified (N-terminus); cysteine pairing not given here
B4: NH2(Biotin)-C(Capped)-Y-G-P-Q-C(Capped)-L-C(Capped)-R-COOH (peptide)
peptide: Biotin-C(Capped)YGPQC(Capped)LC(Capped)R-OH
modifications: reading uncertain; also: printed as NH2(Biotin)-C(Capped)-Y-G-P-Q-C(Capped)-L-C(Capped)-R-COOH

What was measured:
[1] = target: T1, Recombinant human NRP1 with His Tag (Sino Biological Inc.; Cat #1001-H08H) (human), O14786
[2] = target: T1, Recombinant human NRP1 with His Tag …; remark: listed apart in the source
[3] = target: T1, Recombinant human NRP1 with His Tag …; assay: BLI (Octet Red96), biotinylated peptide on streptavidin sensor, NRP1 in solution
[4] = target: T1, Recombinant human NRP1 with His Tag …; remark: listed apart in the source

T1 sequence (O14786 other isoform, or with tags, fused parts or gaps H08H H08H limits assumed): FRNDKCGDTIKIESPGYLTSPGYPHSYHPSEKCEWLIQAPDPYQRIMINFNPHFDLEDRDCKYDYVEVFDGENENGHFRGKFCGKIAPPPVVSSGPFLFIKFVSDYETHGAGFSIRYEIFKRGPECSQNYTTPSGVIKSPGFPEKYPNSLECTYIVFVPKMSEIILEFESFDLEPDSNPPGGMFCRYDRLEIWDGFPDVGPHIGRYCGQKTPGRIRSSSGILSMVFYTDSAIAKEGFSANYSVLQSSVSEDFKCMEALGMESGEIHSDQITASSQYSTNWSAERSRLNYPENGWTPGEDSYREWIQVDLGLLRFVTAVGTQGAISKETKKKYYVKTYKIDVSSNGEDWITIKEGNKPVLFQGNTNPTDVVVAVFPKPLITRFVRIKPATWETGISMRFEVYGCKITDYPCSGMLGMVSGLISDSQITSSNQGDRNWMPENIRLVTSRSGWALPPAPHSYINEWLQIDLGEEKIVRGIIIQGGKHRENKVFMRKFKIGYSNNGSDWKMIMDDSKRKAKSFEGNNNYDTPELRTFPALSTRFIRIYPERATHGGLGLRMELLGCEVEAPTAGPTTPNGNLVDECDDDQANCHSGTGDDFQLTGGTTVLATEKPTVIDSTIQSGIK

Binder | Kd [1] | Kd [2] | further results
B1 | 300 nM and 294 nM | – | –
B2 | – | 112 nM and 187 nM | –
Biotin-CYGPQCLC(Capped)R-OH (disulfide 1-6; reading uncertain) [NH2(Biotin)-C-Y-G-P-Q-C-L-C(Capped)-R-COOH with S-S between the first two C] | 410 nM | – | –
Biotin-C(Capped)LC(Capped)R-OH (reading uncertain; also: printed as NH2(Biotin)-C(Capped)-L-C(Capped)-R-COOH) [NH2(Biotin)-C(Capped)-L-C(Capped)-R-COOH] | – | – | Kd [3]: 335 nM
B3 | – | 173 nM and 70 nM | –
B4 | – | – | Kd [4]: 153 nM and 335 nM
